Results from the supplement of paper PMC9170038.

What follows are sequences tested on K4 kissing-loop RNA reporter (assay: apparent KD of K4 kissing-loop reporter; higher = weaker reporter binding). Settings: Eterna round: R107; input ligand: arginine 13.2 mM.
Experimental: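 RNA-MaP round R107: designed RNA switches with theophylline, tryptophan, arginine or FMN aptamers are transcribed on-chip within common flanks. They are titrated with a labelled K4 kissing-loop RNA reporter in RNA-MaP buffer (100 mM Tris pH 7.5, 80 mM KCl, 4 mM MgCl2), without ligand or with the indicated ligand. Median apparent KD per design.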
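Further: bound reporter read as fluorescence of individual clusters on recovered sequencing chips by microscopy, with normalized cluster intensities fitted with a binding model.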

Row | Sequence | apparent KD of K4 kissing-loop reporter [nM]
1 | AAGCUACGCGCGGCCGCCACUGUUUAUGUAUAAAUGCGUCGCUCACUGCUUUAGUGAUGUUGAAGCAGGACCGGGCGAAUGGUAC [theeternabot_exclusion_KL_Trp_B_15] | 75
2 | CAUACGCAUGGAGGAUAUGAGAUUUCUCAUAUUAUUGCUUAUUCUCAGUGAUGUUGGGAUUUAAGCUCAGAAGGCCAUGUGUAUG [Ex FMN B 10] | 88.4
3 | GUGUAAGUGAUGUUUGCACACACGUCGGAUACCAGAGACUUUAGCCUCCCUUGGCAGCCGCCGGCCAUAAGAGCAAGUCGAUUUA [theeternabot_sameState_KL_Theo_A_20] | 186
4 | UGAUACCAGACUGAUACCAGCAGUGAUGUUGCUGAAAAUAAUAAAUGAGUCAAAGACUCGGGCCCUUGGCAGCAGUCUGGUAUCU [TheoBX 8 #SwitchBubble #StaticStem] | 114
5 | UUGCCUCUGGCUGAUACCAGUGAUGCAGGGUAUGAAACAGGGAGUGAUGUUCCCUGCAGCCACCCUUGGCAGCAGUUUAAGUUUG [Exclusion Theophylline B GF 21] | 152
6 | AAGCCAAAGAUUGCUGCGGGUUCCAGAGAUACCAGCCGUAUUGAAGGCCCUUGGCAGCUCGAGUGAUGUUCGAGCCGUCUCUGGC [Lexerati] | 117
7 | UGACUGGAUUGAAGGAGCGCUAAACUCCUAGUGAUGUUAGGGAAACAAGACAAAGUCUUGAGGCAGGUAGGUCGCAAUCUAGUCU [FiskerMod 4 - Jieux - Same State - Arginine B] | 149
8 | CCUUCUCUUGAUAGUGAUGUUAUCAAGGGCAAGGAUAUCAUCUUAAUGAGAAGGUGUCCUUGAUAACAUGGAGGUCUGAAACAGA [Omei KL FMN A Exc C v5] | 186
9 | UGGUCUGCACGAAGGAGCGCCCUGACAGGUUGCUGCCGUGGGCAGUGAUGUUGCUUAGUCCGGCAGGUAGGUCGCGUGCAGACCA | 205
10 | UUUCCAGAUAAGUGGGAACACUCCAUAACAGAGGAUAUCAGAGCGCUGAGAAGGCUGUUUUACAGUGAUGUUGUAAGUGUGGAGU [FMN A SS t2] | 249
11 | UCCUGCAAUCGACCACGAAAGUGGAUCGAUACCAGAGUCGAAAGACUCCCUUGGCAGCGAGUGAUGUUCGAAGCAGGUAAAUAAA [#SwitchBubble 22 #K4Late] | 383
12 | GAGCGGUGGAGGUUACCGCUAUUCUGAGAAGGAGCGCAGAAGACUGCAGGUAGGUCGCUUAGAGCUUGCAGUGAUGUUGCAAGUU [KL-SSArg-A13] | 122
13 | CGCUGGGCGAGUGAUGUUCGCUCACGUGAUACCAGUGCCAUCCAACACCCUUGGCAGCACGCGGGCAGUGAUGUUGUCCUUGUGG [Exclusion Theophylline A GF7] | 241
14 | GGAUCCACCAGUGAUGUUGGAGAAAACUCUAAGGAUAUGACGAAAGUCAGAAGGUGGUAGACUGGACAAAGUCCGGUCGGAUCCA [FmnA 23 U30] | 177
15 | AGCUCACACGGAAGGAGCGGAUAGAACUGACAGUUGGGCUCAAGUGAUGUUUGGGCUUGAAUCCAGGUAGGUCGCCGUGUGAGCU [Arg B SS t12] | 96.3
16 | CCGACUGCAGGAAGGAGCGGCGGUUGGAGUGAUGUUCCAGGUAGUGAUGUUACCAAGAUCCGCCAGGUAGGUCGCCUGUUGCUCA [Same State Arginie B GF 12] | 106

Row | Sequence | apparent KD of K4 kissing-loop reporter [nM]
17 | UUUUAUUAAUUCUUCUAGUGAUGUUAGAUACGAGGACCGGUACGGCCGCCACUCGCUUAUUGGUUUAUAUAUUUUAUAUUCUUUA [JR_SSTryptoA_Sub015] | 319
18 | AAGUGAUGUUGUAGUGAUGUUGUGAUGUUGCAGGAUAUAUAGUGAUGUAGAAGGGUAAGUACUUAUUUUUUUUUUGAGUGAUGUU [vcbczrmullin] | 45
19 | GGUGCUGUUUGUGCCGCCUUCCUCGUUCCUCGAGGACCGGUACGGCCGCCACUCGAGUGAUGUUUGGGUAGCGAUCCCUGCUAGC [Bdazzled - #14 Exc. Tryptophan A] | 538
20 | GGUAGCAUGGCGGCCGCCACUCGCUAGUGAUGUUAGCGGGAUGAGACAAAGGACAUAACUUUAUCGAGGACCGGGCCAUGCUACC | 66.5
21 | AAGGCCACGAGAAGGAGCGUGCUAUGGAGUGAUGUUCCAGUGUAGACCUAAGGUCUACACGCACAGGUAGGUCGCUCGUGGUCAA [Omei KL Arginine B SS A v1] | 186
22 | AAGGGCUAGGCGGCCGCCACUGGUCGUGUACACAUACGAACCAGUGAUGUUGGUAUUGUAUGCGGCAGGACCGGGCCUAGCCGAA [Exclusion - Tryptophan B (Freestyle 26)] | 447
23 | AGAUCUGUAACAGAUACCAGAGGACGAUGAUCGGAUAGUGAUGUUAUCUGUCAGUCGUCGCUCCCUUGGCAGCUGUUACAGAUCA [Omei KL Theo B SS B v1] | 147
24 | CGGGUACGUCAAGGAUAUAGGCAUGACGUAGUGCAGUGAUGUUGCUCGAGUCUCUUCAACUGAGGACUAGAAGGUGAUCGUAACA [theeternabot_sameState_KL_FMN_B_15] | 351
25 | AAACAUCACUGGGAGUGAUGUUCUCAGUGACGAGGACCGGUACGGCCGCCACUCGCGAGAGAUAUAGUUAAGUAAUGACUGCAUU [Excl Tryptophan A V7] | 251
26 | UCCUAGGCUCGAAAGAGCCUAGGAUUAACUCAGGAUAUCCGGAAACGGAGAAGGGAGUAACUAGUGAUGUUAGGGAUUCCCUAUU | 94
27 | UGGUUUAACUGAAGGAGCGGCAAUUGAUAAGUAAAUAUAGUGAUGUUAUAUAAGAUAGAGAGCCAGGUAGGUCGCAGAGGUAUUU [ExArgB.O] | 147
28 | AACUCUCAGACACUUGAGUGAUGUUCAGACCGAGGACCGGUACGGCCGCCACUCGGGUCUGAGAGAGGUUAUCAAAGAUAGCCAA [Omei KL Tryp A SS A v7] | 222
29 | UGACUGGAUGGAAGGAGCGCUAAACUCCUAGUGAUGUUAGGGAUAUGAGGCAAAGCCUCGAGGCAGGUAGGUCGCCAUCUAGUCU [FiskerMod 19 - Jieux - Same State - Arginine B] | 114
30 | UGAUACCAGACGGCCGCCACUCCCGUAAGUCAAAGACUUACGAAGAGGGUUUUUUAGUGAUGUUGGAGGACCGGGUCUGGUAUCU [FiskerMod 18 - Jieux - Exclusion - Tryptophan B] | 256
31 | UGUCAUUGGUCGGCCGCCACUAAAAUAAAAGAGUGAUGUUCUUAAAAGACGGACAAAGUCUGUCAUAGGACCGGGACCGAUGACU [TrypBS 23 #SwitchBubble #StaticStem] | 425
32 | AUAUUUAUUUAGUCACUUUUAAUAUUAUGUCAGGAUAUCGUAAUUUCGAGAAGGGACUCAUGCUAGUGAUGUUAGCUAAUUCUCA [JR_Nu3_ExcFMNA_Sub023] | 161

Same assay, conditions: Eterna round: R107; input ligand: none

Row | Sequence | apparent KD of K4 kissing-loop reporter [nM]
33 | AUUUAUCCGUCCAGCUGAGUGAUGUUUAGCCGAGGACCGGUACGGCCGCCACUCGUAAGAACCUGUUACGUUGGCUCCUGUGGUG [theeternabot_exclusion_KL_Trp_A_49] | 286
34 | UUACGAGUGAUGUUCGAAUAAAUCCAUUCAGAGGAUAUAGUAUUAACUAGAAGGCUGAAACCAACUUCGAGUGAUGUUCGAGGAU [Same State FMN A GF 3] | 108
35 | AUAUUGGUUGAGAGUGAUGUUCCUUGUGUUCGAGGACCGGUACGGCCGCCACUCGGGUAGAAAAUAAAAGAUAUGUUUGAUUUUU [BDazzled - #12 SS Tryptophan A] | 242
36 | AAGGGCUAGGCGGCCGCCACUGGUCGUGUACACAUACGAGCCAGUGAUGUUGGUAUUGUGUGCGGCAGGACCGGGCCUAGCCGAA [Exclusion - Tryptophan B (Freestyle 25)] | 304
37 | UUAGCAGUAUACUGCAAGACCUAUACUGAUACCAGAGCCUAUAGGCUCCCUUGGCAGCGGAUCGAGUGAUGUUCGUAAGGUCAUU [AK4.3 SS Theophylline A] | 1080
38 | UAUUCUGUUCGAAAGAACGGAAUUUCGGAAGGAGCGAGAGAAAUCUCAGGUAGGUCGCCGAAAUUAUUAGGUAGUGAUGUUACCU [Arginine A K4 5] | 142
39 | UGUCAUUGGUCGGCCGCCACUUCAUAGAGAGUGAUGUUCUUUAAGACGGAUCGAAAGAUCUGUCGAAGGACCGGGACCGAUGACU [FiskerMod 10 - Jieux - Same State - Tryptophan B] | 1390
40 | AAACUUGCAGUGAUGUUGCAAGUAGGUGAUACCAGCAUCGAAAGAUGCCCUUGGCAGCACCAAAACAUCACUUAGGUAUCACCAA [(H1)-(H2)-(T1)-(T2)-(H)'-(T)'_Design3] | 210
41 | GGAUAGGACUGAGGAUAUGGUAGUGAUGUUACCAAACUGGUUAAACAUGUCAGAAAACUGGCAUGACCAGAAGGCGGUCCUAUCG [FmnBX 27 U10+G76] | 72.5
42 | UAACAGGCCCUCACCGUCUUAUUUACAGACCGAGGACCGGUACGGCCGCCACUCGUGAAGUGAUGUUUCAAACAAGCGGUAGGAU | 685
43 | AAGCUACGCGCGGCCGCCACUGUUUAUGUAUAAAUGCGUCGCUCACUGCUUUAGUGAUGUUGAAGCAGGACCGGGCGAAUGGUAC [theeternabot_exclusion_KL_Trp_B_15] | 79.6
44 | CAUACGCAUGGAGGAUAUGAGAUUUCUCAUAUUAUUGCUUAUUCUCAGUGAUGUUGGGAUUUAAGCUCAGAAGGCCAUGUGUAUG [Ex FMN B 10] | 98
45 | GUGUAAGUGAUGUUUGCACACACGUCGGAUACCAGAGACUUUAGCCUCCCUUGGCAGCCGCCGGCCAUAAGAGCAAGUCGAUUUA [theeternabot_sameState_KL_Theo_A_20] | 210
46 | UGAUACCAGACUGAUACCAGCAGUGAUGUUGCUGAAAAUAAUAAAUGAGUCAAAGACUCGGGCCCUUGGCAGCAGUCUGGUAUCU [TheoBX 8 #SwitchBubble #StaticStem] | 116
47 | UUGCCUCUGGCUGAUACCAGUGAUGCAGGGUAUGAAACAGGGAGUGAUGUUCCCUGCAGCCACCCUUGGCAGCAGUUUAAGUUUG [Exclusion Theophylline B GF 21] | 181
48 | AAGCCAAAGAUUGCUGCGGGUUCCAGAGAUACCAGCCGUAUUGAAGGCCCUUGGCAGCUCGAGUGAUGUUCGAGCCGUCUCUGGC [Lexerati] | 117
49 | UGACUGGAUUGAAGGAGCGCUAAACUCCUAGUGAUGUUAGGGAAACAAGACAAAGUCUUGAGGCAGGUAGGUCGCAAUCUAGUCU [FiskerMod 4 - Jieux - Same State - Arginine B] | 173
50 | CCUUCUCUUGAUAGUGAUGUUAUCAAGGGCAAGGAUAUCAUCUUAAUGAGAAGGUGUCCUUGAUAACAUGGAGGUCUGAAACAGA [Omei KL FMN A Exc C v5] | 229
51 | UGGUCUGCACGAAGGAGCGCCCUGACAGGUUGCUGCCGUGGGCAGUGAUGUUGCUUAGUCCGGCAGGUAGGUCGCGUGCAGACCA | 243
52 | UUUCCAGAUAAGUGGGAACACUCCAUAACAGAGGAUAUCAGAGCGCUGAGAAGGCUGUUUUACAGUGAUGUUGUAAGUGUGGAGU [FMN A SS t2] | 283
53 | UCCUGCAAUCGACCACGAAAGUGGAUCGAUACCAGAGUCGAAAGACUCCCUUGGCAGCGAGUGAUGUUCGAAGCAGGUAAAUAAA [#SwitchBubble 22 #K4Late] | 453
